# Test results reported in the nanobody polyreactivity screen of Harvey et al. (2022).
# Assay: yeast display, Sf9 membrane polyspecificity reagent, FACS + sequencing; frameworks hold sequencing errors
# Procedure, shortened: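 A synthetic nanobody library was expressed on Saccharomyces cerevisiae BJ5465 by galactose induction for 36–48 hours. The library was stained for 1 hour at 4 °C with 10% biotinylated, detergent-solubilized Sf9 membrane reagent and enriched with streptavidin microbeads before FACS. Low and high (top ~1%) gates were set on anti-HA fluorescence for expression and streptavidin fluorescence for reagent binding, and each polyreactivity label reflects the gate of origin.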
row,Sequence,polyreactivity (PSR sort gate)
1,QVQLVESGGGLVQAGGSLRLSCPASASIFLSNMGWYRQAPGKERELVAAITIGGSTDYADSVKGRFTISRDNAKNTVYLQMNSLKPEDTAVYYCNADNPYSDGADSLGNYWGQGTQVTVSS,low polyreactivity
2,QVQLVESGGGLVQAGGSLRLSCAASGFNFYTNVMGWYRPAPGKERELVAAINSGGSTNYADSVKGRFTISRDNAKNTVYLQMNSLKPEDTAVYYCAARVARISVPYDYWGQGTQVTVSS,low polyreactivity
3,QVQLEESGGGLVQAGGSLRLSCAASGSTFTFYAMGRYRQAPGKERELVAAINGRGGSTYYADSVKGRFTISRDNAKNTVYLQMNSLKPEDTAVYYCATRLYYSVRYNMGYWGQGTQVTVSS,high polyreactivity
4,QVQLVESGGGLVQAGGRLRLSCAASGRIFPKNTMGWNRPAPGKERELVAAINWNGGRTYYADSVKGRYTISRDNAKTTVYLQMNSLKPEDTAVYYCAKDGYWVFDYWGQGTQVTVSS,low polyreactivity
5,QVQLVESGGGLVQAGGSLRLSCAASGFTLQRYAMGWYRQAPGKEREFVAVITRSGGSTYYADSVKGRFTISRDNAKNSVYLQMNSLKPEDTAVYDCAKREFPTTRNRGRYDYWGQGTQVTVSS,high polyreactivity
6,QVQLVESGGGLVQAGGSLRLSCAASRFIFSFYVMGWYRQAPAKETELVAAISTSGASTYYADSVKGRFTITRDNAKKTVYLQMNSLKPEDTAVYYCNVGYRYGGYNYWGQGTQVTVSW,high polyreactivity
7,QVQLVESGGGLVQAGGSLRLSCAASGRTYRFNAMGWYRQAPGKERELVAAISKSGGSTYYADSVKGRFTISRDNAKNTVYLQMNSLKPEDTAVYYCAAQTYLYEYKYWGQGTQVTVSS,high polyreactivity
8,QVQLVESGGGLVQAGGSLRLSCAASGLMFTRYAMGWYRQAPGKERELVAAISITGGSTYYADSVKGRFTFSRDNAKNTVYLQMNSLKPEDTAVYYCAAQRQVTTGIYGYWGQGTQVTVSS,high polyreactivity
9,QVQLVESGGGLVQAGGSLRLSCAASGSTFWSYAIGWYRQAPGKERELVATISAGGGSTSYADSVKGRFTISRDNAKNTVYLQMNSLKPEDTAVYYCATGYSDSSRYGGYYKFDYWGQGTQVTVSS,low polyreactivity
10,QVQLVESGGCLVHAGGSLRLSCAASGFTFRWYAMGWYRQAPGKERELVASISRRGGSTYYADSVKGRFTISRDNEKNTVYLQMNSLKPEDSAVYYCAADYYDYWGQGTQVTVSS,high polyreactivity
11,QVQLVESGGGLVQAGGSLRLSCAASGSTFPVNAMGWYRQAPGKEREMVASITWGDGSTYYADSVKGRFTISRDNAKNTVYLQMNSLKPEDTADYYCNKDFFYGYDAASYRPEYDYWGQGTQVTVSS,low polyreactivity
12,QDQLVESGGGLVQAGGSLRLSCAASGLIFYEYAMGWYRQAPGKERELVAAISRGGRTYYADSVKGRFTISRDNAKNTVYLQMNSLKPEDTAVYYCADRHWPEKYDYWGQGTHVTVSS,high polyreactivity
13,QVQLVESGGGLVQAGGSLRLSCAASGFILPTYAMGWYRQAPGKERELVAAITRSGGSTYYADSVKGRFTISRDNAKNTVYLQMNSLKPEDTAVYYCAAQRLSASRPYGYWGQGTQVTVSS,high polyreactivity
14,QVQLVESGGGLVQAGGSLRLSCAASGSTFEWYTMGWYRQAPGKERELVAAINGGGSTKYADSVKGRFTISRDNAKKTVYLQMNSLKPEDTAVYYCNLKYGMYWGQGTQVTVSS,high polyreactivity
15,QVQLVESGGGLVEAGGSLRLRCAASGISYRYYAMGWYRQAPGKERELVAAITYRGGTTYYADSVKGRFKISRDKEKNTVYLQMNSLKPEDTAVYYCATDVNSYGYYYWGQGTQVTVSS,high polyreactivity
16,QVQLVESGGGLVQAGGSLRLSCAASGRTFGPNAMGWYRQAPGKERELVAVISGSTGSTYYADSVKGRFTISRDNAKNTVYLEMNSLKPEDTAVYYCAAKSEFYDWYRSYQYEYYYWGQGTQVTVSS,high polyreactivity
17,QVQLVESGGGLVQAGGSLRLSCAASGSTFETYAMGWYRQAPGKERELVAVITSDGSTNYADSVKGRFTISRDNAKNTVYLQMNSLKPEDTAVYYCNADYGFYVPGYPIYWIYEYWGQGTQVTVSS,low polyreactivity
18,QVQLVESGGGLVQAGGSLRLSCAAYGSIFYYYAKGWYRQAPGKERELVAAINGGDTYYADSVKGRFTISRDNAKNTVYLHMNSLKPEDTAVYYCAAEGVTVEWDYDYWGQGTQVTVSS,low polyreactivity
19,QVQLVESGGGLVQAGGSLRLSCAASGGIFARNAMGWYRQAPGKVRELVAAISWSGGRTYYADSVKGRFTISRDNAKNTDYLQMNSLKPEDTAVYYSAADHDPWWAWEFDYWGQGTQVTVSS,low polyreactivity
20,QVQLVESGGGIVQAGGSLRLSCAASGSISAYYAMGWYRQAPGNERELVAAISWNGGRTYYADSVKGRFTISRDNAKNSVYLQMNSLKPEDTAVYYCAASPYYVVSTGGYDYDYWGQGTQVTVSS,high polyreactivity
21,QVQLVESGGGLVQAGGSLRLSCAASGSTFGWNAMGWYRQAPGKERELVAAITRGGRTTYADSVKGRFTISRDNAKNTVYLQMNSLKPEDTAVYYCAALHGRYPNRYDYWGQGTQVTVSS,low polyreactivity
22,QVQLVESGGRLVQAGRSLRLSCAASGSIFHDYAMGWYRQAPGKERELVAVISTSGGSTYYADSVKGRFTISRDNAKNTVYCQMNRLKPEDTAFYYCNARTVGPYPSHAALEYDSWGQGTQVTVSS,low polyreactivity

row,Sequence,polyreactivity (PSR sort gate)
1,QVQLVESGGGLVQAGGSLRLSCAASGRTFTGYAMGWYRQAPGKERELVAAISRRGASTYYADSVKGRFTISRDNAKNTVYLQMNSLKPEDTAVYYCAAYLYGLWSVGRDYWGQGTQVTVSS,high polyreactivity
2,QVQLVESGVGLVQAGGSLRLIWAASGSTFVKNVMGWYRQAPGKERELVAGITRGGSTYYADSVKGRFTISRDNAKKTVYLQMNSLKPEDTAVYYCAKRYAWDRDYWGQGTQVTVSS,high polyreactivity
3,QVQLVESGGGLVQAGGSLRLSCAASGSIFSYYAMGWYRQAPGKERELVAAISKRGASTYYADSVKGRFTISRDNAKNTVYLQMNSLKPEDTAVYYCAARPYGGGRRSIYYYWGQGTQVTVSS,high polyreactivity
4,QVQLVESGGGLVQAGGSLRLSCAASGRTFYRNPMGWYRQAPAKERELVAANSWSGGRTFYADSVKGRFTISRDNAKNTVYLHMNSMKPEDTAVYYCAKSYTTPGYYRYDYWGQGTQVTVSS,high polyreactivity
5,QVQLVESGGGLVQAGGSLRLSCAASGRTFYYNTMGWYRQAPGKERELVAAITSRGSTYADSVKGRFTISRDNAKNTVYLQMNSLKPEDTAVYYCAAVWRYGSWYSGRLYEYWGQGTQVTVSS,high polyreactivity
6,QFQLVESGGGLVQAGGSLRLSCAASGRTFGFNAMGWYRQAPGKERELVAALSGSGGRTYYADSVQGRFTISRDNAKNTVYLQMNSLKPEDTAVYYCAAGARRGGSGDWGQGTQVTVSS,high polyreactivity
7,QVQLVESGGGLVQAGGSLRLSCAASGSTFDYYAMGWYRQAPGKERELVAAISSGGSTNYADSVKGRFTISRDNAKNTVYLQMNSLKPEDTAVYYCAAVALWDYKFFYYLLYDYWGQGTQVTVSS,low polyreactivity
8,QVQLVESGGGLVQAGGSLRLSCAASGSTIDYYAMGWYRQAPGKERELVATISRGGSTNYADSVKGRFTISRDNAKNTVYLQMNSLKPEDTAVYYCAATYARYFYKYYYWGQGTQVTVSS,high polyreactivity
9,QVQLVESGGGLVQAGGSLRLSCAASGSIFYTNAMGWYRQAPGKERELVAAISISGSTYYADSVKGRFTISRDNAKNTVYLQMNSLKPEDTAVYYCAAGPGYVRYPRSGVWYVTLYDYWGQGTQVTVSS,high polyreactivity
10,QVQLVESGGGLVQAGGSLRLSCAASGSTFKIYAMGWYRQAPGKERELVAVITSGGRTNYADSGKGRFTISRDNAKNTVYLQMNSLKPEDTAVYYCARGRSIHSSNRLEYWGQGTQVTVSS,high polyreactivity
11,QVQLVESVGGLVQAGGSLRLSCAASGFIIYGYGMGWYRQAPGKERELVAAISARSTRTYYADSVKGRFTISRDNAKNTVYLQMNSLKPEDTAVYYCAAVRGPTYRNDNYGYWGQGTQVTVSS,high polyreactivity
12,QVQLVESGGGLVQAGGSLRLSCAASGSTFYLYAMGWYRQAPGKERELVASITYSGASTYYADSVKGRFTISRDNAKNTVYLQMNSLKPEDTAVYYCAADQRGWFAVGSQRKYNYWGQGTQVTVSS,low polyreactivity
13,QVQLVESGGGLVQAGGSLRLSCAASGFILYFNAMGWYRQAPGKDRELVAVISCTGVRTNYADSVKGRFTISRDNAKNTVYLQMNSLKPEDTAVYYCAAGYYSYRPRDYWGQGTQVTVSS,low polyreactivity
14,QVQLVESGGGLVQAGGSLRLSCAASGSTFLVYAMGWYRQAPGKERELVAVIRWRDGSTYYADSVKGRFTISRDNAKNTVYLQMNSLKPEDTAVYYCAAVYWGEEYEYWGQGTQVTVSS,low polyreactivity
15,QVQLVESGGGLVQAGGSLRLSCAASGSIFEGNGMGWYRQAPGKERELVAAITFRSGSTYYADSVKGRFTISRDNAKNTVYLLMNSLKPADTAVYYCAAHESYQVSAYDYWGQGSQVTVSS,low polyreactivity
16,QVQLVESGGGLVQAGGSLRLSCAASGSIFCSYAMAWYRQAPGKERELVASITRSGGSTYYADSVKGRFTISRDNAKNTVYLQMNSLKPEDTAVYYCNARRTTRWGSSKYEYDYWGQGTQVTVSS,high polyreactivity
17,QVQLVETGGGLVHAGGSLRLSCAASGSILRPNAMGWYRQAPGKERELVAAITTSGGSTYYADSVKGRFTISRDNAKNTVYLQMNSLKPEDTAVYYCAAEYVYYYYLYLYYYWGQGTQVTVSS,high polyreactivity
18,QVQLVESGGGLVQAGGSLRLSCAASGRTFLYYAMGWYRQAPGKERELVAGITSGGSTNYADSVKGRFTISRDNAKNTVYLQMNSLKPEATAVYYCAVDQGYSRTADVNYDYWGQGTQVTVSS,low polyreactivity
19,QVQIVESGGGLVQAGGSLRLSCAASGSTFGYYAMGWYRQAPGKERELVAAISWRGGSTYYADSVKGRFTISRDNAKNTVYLQMHILKPEYTAVYYCAAAIFITGYGSYGYWGLGTQVTVSS,low polyreactivity
20,QVQLVESGGGLVQAGGSLRLSSAASGSIFSYNVMGWYRQAPGKERELVAAISWNDGSTYYADSVKGRFTISRDNAKNTVYLQMNSLKPEDTAVYYCAAEYGRRWHNELDYWGQGTQVTVSS,low polyreactivity
21,QVQLVESGGGLVQAGGSLRLSCAASGRTFPPYAMGWYRQAPGKERELVASIRRGGSTHYADSVKGRFTISRDNAKNTVYLQMNSLKPEDTAVYYCNADVIFGYTHYNYWGQGTQVTVSS,high polyreactivity
